Data: the RNAGym collection of RNA variant scans (doi:10.1073/pnas.2313332121)

B1: TPR t1 (parent)
chain: GACCAAUCUGCCCUCAGAGCUCGAGAACAUCUUCGGAUGCAGAGGAGGCAGGCUUCGGUGGCGCGAUAGCGCCAACGUCCUCAACCUCCAAUGCAUCCCACCACAUGAUGAUGCCUGAAGAGCCUUGGUUUUUUG

Variants of: B1
Experiment: polymerase ribozyme fitness, log enrichment relative to wild type (log ratio); higher = more active; in vitro selection for triplet polymerase activity
Procedure, shortened: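 Fitness compares each genotype's enrichment to that of the wild type on a logarithmic scale, averaging replicates with inverse-variance weights. The logarithm is base 2. Enrichment came from Illumina sequencing of input and output libraries after one triplicate round of in vitro selection, which included frozen incubation at −7 °C, of PCR-built, transcribed mutant libraries of each subunit of a heterodimeric triplet polymerase ribozyme. Only genotypes with ≥10 input reads and ≥1 read per output were kept.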

Variant	polymerase ribozyme fitness (log ratio)
C62U U116C	-1.06
C62U U129A	-1.09
C62U U130G	-1.41
C62U U133A	-0.403
G63A A74U	-3.72
G63A A83C G127A G128C	-3.2
G63A A90U	-3.43
G63A A103U	-6.64
G63A A105G C124G	-2.8
G63A A119G G127U	0.478
G63A A119U	-1.29
G63A A119U G135U	-1.7
G63A A121C	0.832
G63A C64U	-5.38
G63A C72G C104G G120A G122U	-6.38
G63A C79A	-3.48
G63A C79A G93U	-4.19
G63A C79A G128C	-4.78
G63A C82A	-2.53
G63A C85A C115U	-4.85
G63A C88U	-1.46

Variant	polymerase ribozyme fitness (log ratio)
G63A C89A C115G	-4.92
G63A C97A	-6.64
G63A C97U C115A	-0.416
G63A C102A	-3.54
G63A C102U U133G	-2.77
G63A C104A U132A G135U	-3.28
G63A C115U A119C	-5.84
G63A C123G	0.797
G63A C123U G128C	-1.87
G63A C124A	0.45
G63A C124G	0.684
G63A G93U G110A	-4.5
G63A G113C	-2.53
G63A G113C U133A	-4.26
G63A G113U G127C	-4.93
G63A G120U	-0.702
G63A U78C	-0.735
G63A U78C A84C U96G U116G	-4.46
G63A U78C A91G A121G	0.408
G63A U78C A95G	-0.717
G63A U78G	-2.6

Variant	polymerase ribozyme fitness (log ratio)
G63A U78G U112A	-2.03
G63A U87A	-1.03
G63A U96G U112A A118G	-1.58
G63A U112A G122C	-1.55
G63A U112A U125A	-1.17
G63A U125A	-1.21
G63A U132A	-0.756
G63C A75U U87A	-0.774
G63C A84G	-1.73
G63C A111U	-3.26
G63C A121C	0.84
G63C A121G	0.727
G63C A121G U130A	0.94
G63C C86A A118G	-2.3
G63C C86A U96G C102A	-5.23
G63C C86U U112A	0.23
G63C C89A U116C	-3.78
G63C C97A G120C U126A	-6.28
G63C C98U	-2.15
G63C C104U	-0.59
G63C C114A	-2.44

Variant	polymerase ribozyme fitness (log ratio)
G63C C114U	-2.19
G63C C114U A118C	-3.66
G63C C115G	-2.43
G63C C123A G127A G135C	-0.151
G63C C124A	0.234
G63C G77C U129C	-3.13
G63C G93A	-1.12
G63C G110U	-2.57
G63C G117A	-1.45
G63C U78G C98U	-2.14
G63C U81G	-4.28
G63C U81G G120A	-3.19
G63C U87A U130C G135U	-1.49
G63C U112A	0.435
G63C U112G	-0.181
G63C U132A	-0.875
G63U A74U	-4.43
G63U A84C	-1.52
G63U A90C C101A	-4.63
G63U A105G	-3.13
